Measurements from patent publication US20170088585A1.

Molecular target: Aβ40 (UniProt P05067)
Test: cell-based or functional assay

Aβ40, sequence (P05067 672-711 limits assumed): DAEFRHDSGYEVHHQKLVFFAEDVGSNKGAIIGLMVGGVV

Inhibition at 1:1 (ThT assay, Aβ:cyclic peptide) [%]	Inhibition at 1:1/3 (ThT assay, Aβ:cyclic peptide) [%]	Substance
55	42	[lZwHsK]: Cyclo-D-leucine-L-2-aminooctanoic acid-D-tryptophan-L-histidine-D-serine-L-lysine (peptide)
69	37	[lJwHsK]: Cyclo-D-leucine-L-noreucine-D-tryptophan-L-histidine-D-serine-L-lysine (peptide)
